Measured values from US20200247855A1, “THERAPY AND DIAGNOSTICS” (OXFORD UNIVERSITY INNOVATION LIMITED, priority 2017, published 2020).
Where a chain is given by its changes, count along the chain named.

Key:
CCL11_HUMAN [1] = target: T1, CCL11_HUMAN (Homo sapiens, UniProt P51671); test: Yeast surface display (YSD) FACS binding
Outline: (§1)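 Yeast clones displaying tick peptides were re-tested by FACS with labelled chemokine. Binding = % of peptide-expressing yeast above a background threshold set with streptavidin-Alexa647 alone; the mean percent shift was used where several clones were isolated. Confirmed binding ("YES") required >3-fold over background mean fluorescence intensity.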

CCL18_HUMAN [2] = target: T2, CCL18_HUMAN (Homo sapiens, UniProt P55774); test: Yeast surface display (YSD) FACS binding
T2 sequence (P55774 21-89): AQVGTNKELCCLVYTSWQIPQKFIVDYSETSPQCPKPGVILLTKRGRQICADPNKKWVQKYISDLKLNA
Outline: as §1

CCL1_HUMAN = target: T3, CCL1_HUMAN (Homo sapiens, UniProt P22362); test: Yeast surface display (YSD) FACS binding
T3 sequence (P22362 24-96): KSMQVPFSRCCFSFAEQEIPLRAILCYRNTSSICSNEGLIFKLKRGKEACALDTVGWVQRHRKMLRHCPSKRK
Outline: as §1

CCL5_HUMAN [3] = target: T4, CCL5_HUMAN (Homo sapiens, UniProt P13501); test: Yeast surface display (YSD) FACS binding
T4 sequence (P13501 24-91): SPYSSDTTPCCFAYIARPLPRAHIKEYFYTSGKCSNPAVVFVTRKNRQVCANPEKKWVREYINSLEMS
Outline: as §1

CXCL12_HUMAN = CXCL12_HUMAN (Homo sapiens, UniProt P48061); test: Yeast surface display (YSD) FACS binding; details: yeast surface display
Outline: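 Yeast clones displaying tick peptides were re-tested by FACS with labelled chemokine detected by streptavidin-Alexa conjugate. Binding was scored as % of peptide-expressing cells above a background set with streptavidin-Alexa alone, averaged over independent clones. In the screen tables, >3-fold over background mean fluorescence intensity was scored as binding.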

CCL17_HUMAN = target: T5, CCL17_HUMAN (Homo sapiens, UniProt Q92583); test: Yeast surface display (YSD) FACS binding
T5 sequence (Q92583 24-94): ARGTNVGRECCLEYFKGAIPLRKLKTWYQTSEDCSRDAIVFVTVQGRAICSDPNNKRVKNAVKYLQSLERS
Outline: as §1

CCL19_HUMAN [4] = target: T6, CCL19_HUMAN (Homo sapiens, UniProt Q99731); test: Yeast surface display (YSD) FACS binding
T6 sequence (Q99731 22-98): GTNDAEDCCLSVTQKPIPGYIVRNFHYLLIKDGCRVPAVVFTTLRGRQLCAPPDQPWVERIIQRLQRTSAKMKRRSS
Outline: as §1

CCL3_HUMAN = target: T7, CCL3_HUMAN (Homo sapiens, UniProt P10147); test: Yeast surface display (YSD) FACS binding
T7 sequence (P10147 24-92): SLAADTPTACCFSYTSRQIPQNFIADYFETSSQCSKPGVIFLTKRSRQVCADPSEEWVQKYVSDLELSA
Outline: as §1

CCL11_HUMAN [5] = target: T1, CCL11_HUMAN; test: Biolayer interferometry (BLI) binding
Outline: (§2)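 Ni-NTA biosensor loaded with His-tagged tick chemokine-binding protein; 300 nM chemokine cross-binding screen; hits repeated with chemokine dose series; Kd from fitted kinetic and equilibrium data.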

CCL13_HUMAN = CCL13_HUMAN (Homo sapiens, UniProt Q99616); test: Biolayer interferometry (BLI) binding
Outline: as §2

CCL14_HUMAN = target: T8, CCL14_HUMAN (Homo sapiens, UniProt Q16627); test: Biolayer interferometry (BLI) binding
T8 sequence (Q16627 20-93): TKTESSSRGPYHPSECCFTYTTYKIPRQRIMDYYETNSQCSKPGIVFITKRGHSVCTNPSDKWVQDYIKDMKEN
Outline: as §2

CCL15_HUMAN = target: T9, CCL15_HUMAN (Homo sapiens, UniProt Q16663); test: Biolayer interferometry (BLI) binding
T9 sequence (Q16663 22-113): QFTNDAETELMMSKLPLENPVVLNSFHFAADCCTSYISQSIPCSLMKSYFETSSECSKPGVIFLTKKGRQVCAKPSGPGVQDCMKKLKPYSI
Outline: as §2

CCL18_HUMAN [6] = target: T2, CCL18_HUMAN; test: Biolayer interferometry (BLI) binding
Outline: as §2

CCL19_HUMAN [7] = target: T6, CCL19_HUMAN; test: Biolayer interferometry (BLI) binding
Outline: as §2

CCL22_HUMAN = target: T10, CCL22_HUMAN (Homo sapiens, UniProt O00626); test: Biolayer interferometry (BLI) binding
T10 sequence (O00626 25-93): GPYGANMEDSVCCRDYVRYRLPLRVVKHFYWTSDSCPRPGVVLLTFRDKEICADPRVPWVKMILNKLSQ
Outline: as §2

CCL23_HUMAN = target: T11, CCL23_HUMAN (Homo sapiens, UniProt P55773); test: Biolayer interferometry (BLI) binding
T11 sequence (P55773 22-120): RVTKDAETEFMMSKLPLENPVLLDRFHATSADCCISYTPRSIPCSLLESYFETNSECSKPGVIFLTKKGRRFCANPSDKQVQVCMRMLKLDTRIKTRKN
Outline: as §2

CCL24_HUMAN = target: T12, CCL24_HUMAN (Homo sapiens, UniProt O00175); test: Biolayer interferometry (BLI) binding
T12 sequence (O00175 27-119): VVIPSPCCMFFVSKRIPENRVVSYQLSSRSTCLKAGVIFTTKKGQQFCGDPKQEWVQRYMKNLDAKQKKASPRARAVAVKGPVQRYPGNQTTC
Outline: as §2

CCL27_HUMAN = target: T13, CCL27_HUMAN (Homo sapiens, UniProt Q9Y4X3); test: Biolayer interferometry (BLI) binding
T13 sequence (Q9Y4X3 25-112): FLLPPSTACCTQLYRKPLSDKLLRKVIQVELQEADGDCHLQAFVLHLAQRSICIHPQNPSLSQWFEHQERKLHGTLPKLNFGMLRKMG
Outline: as §2

CCL3L1_HUMAN = CCL3L1_HUMAN (Homo sapiens, UniProt P16619); test: Biolayer interferometry (BLI) binding
Outline: as §2

CCL4L1_HUMAN = target: T14, CCL4L1_HUMAN (Homo sapiens, UniProt Q8NHW4); test: Biolayer interferometry (BLI) binding
T14 sequence (Q8NHW4 24-92): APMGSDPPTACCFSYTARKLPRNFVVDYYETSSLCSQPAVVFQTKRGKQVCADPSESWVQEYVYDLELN
Outline: as §2

CCL4_HUMAN = target: T15, CCL4_HUMAN (Homo sapiens, UniProt P13236); test: Biolayer interferometry (BLI) binding
T15 sequence (P13236 24-92): T14 sequence (Q8NHW4 24-92) with G47S
Outline: as §2

CCL5_HUMAN [8] = target: T4, CCL5_HUMAN; test: Biolayer interferometry (BLI) binding
Outline: as §2

CCL7_HUMAN = CCL7_HUMAN (Homo sapiens, UniProt P80098); test: Biolayer interferometry (BLI) binding
Outline: as §2

CCL8_HUMAN = target: T16, CCL8_HUMAN (Homo sapiens, UniProt P80075); test: Biolayer interferometry (BLI) binding; details: read-out: Kd, CCL8_HUMAN
T16 sequence (P80075 24-99): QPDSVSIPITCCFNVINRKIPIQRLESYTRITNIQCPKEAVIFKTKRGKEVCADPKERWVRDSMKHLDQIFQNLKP
Outline: as §2

T1 sequence (P51671 24-97): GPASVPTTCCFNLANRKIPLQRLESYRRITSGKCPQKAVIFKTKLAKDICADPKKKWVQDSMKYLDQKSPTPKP
CXCL12_HUMAN, sequence (P48061 22-93): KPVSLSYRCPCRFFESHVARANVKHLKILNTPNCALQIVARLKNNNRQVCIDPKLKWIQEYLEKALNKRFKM
CCL13_HUMAN, sequence (Q99616 17-98): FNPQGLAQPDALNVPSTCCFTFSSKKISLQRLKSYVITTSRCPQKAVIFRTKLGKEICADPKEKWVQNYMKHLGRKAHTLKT
CCL7_HUMAN, sequence (P80098 24-99): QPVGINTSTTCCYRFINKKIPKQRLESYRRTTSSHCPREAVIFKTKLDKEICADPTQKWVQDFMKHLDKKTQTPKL
CCL3L1_HUMAN, sequence (P16619 24-93): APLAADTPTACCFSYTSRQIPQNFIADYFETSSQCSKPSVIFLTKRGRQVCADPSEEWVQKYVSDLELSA

B1: P1029_AMBPA: tick CKBP, Amblyomma parvum; named P1209_AMBPA in Table 1 (protein, listed as Amblyomma parvum)
chain: KTDTKNAAGELPPKVAIPGCEDPATTKAPLPDDPRYYGVTIDKDGCQRKVLGSSQRQQRQVQNGRKPGRKGRGRRPVFVDLKLTVDCKRKCNGTYSQLPDGEPCLVCDGEPYGRHRTIKGGCYQGNCSSGQCHRGERKVNCYIPKNITNNVLNSVNLAE
Binding to CCL11_HUMAN, YSD (CCL11_HUMAN [1]): YES (An arbitrary threshold of >3 fold over background mean fluorescence intensity was chosen to describe confirmed re-tests. Where binding was detected data are indicated as “YES”) | Binding to CCL18_HUMAN, YSD (CCL18_HUMAN [2]): YES (An arbitrary threshold of >3 fold over background mean fluorescence intensity was chosen to describe confirmed re-tests. Where binding was detected data are indicated as “YES”) | Binding to CCL1_HUMAN, YSD (CCL1_HUMAN): YES (An arbitrary threshold of >3 fold over background mean fluorescence intensity was chosen to describe confirmed re-tests. Where binding was detected data are indicated as “YES”) | Binding to CCL5_HUMAN, YSD (CCL5_HUMAN [3]): YES (An arbitrary threshold of >3 fold over background mean fluorescence intensity was chosen to describe confirmed re-tests. Where binding was detected data are indicated as “YES”) | Binding to CXCL12_HUMAN, YSD (CXCL12_HUMAN): YES (An arbitrary threshold of >3 fold over background mean fluorescence intensity was chosen to describe confirmed re-tests. Where binding was detected data are indicated as “YES”)

B2: P1005_AMBMA: tick CKBP, Amblyomma maculatum (protein, listed as Amblyomma maculatum)
chain: EKDTPKNIPGCGDTGTTAAPPADNPKHFAVYTDKHGCTIKVIGTWMTKEDHSRLPVSLRRVRASSGRVMLPASCQKICNDTVKNFPEGTPCRLVTGDPIKGKNHIKDGCIRGYCSSGVCVSDKRNISCYVPPN
Binding to CCL11_HUMAN, YSD (CCL11_HUMAN [1]): YES (An arbitrary threshold of >3 fold over background mean fluorescence intensity was chosen to describe confirmed re-tests. Where binding was detected data are indicated as “YES”) | Binding to CCL17_HUMAN, YSD (CCL17_HUMAN): YES (An arbitrary threshold of >3 fold over background mean fluorescence intensity was chosen to describe confirmed re-tests. Where binding was detected data are indicated as “YES”) | Binding to CCL19_HUMAN, YSD (CCL19_HUMAN [4]): YES (An arbitrary threshold of >3 fold over background mean fluorescence intensity was chosen to describe confirmed re-tests. Where binding was detected data are indicated as “YES”) | Binding to CCL1_HUMAN, YSD (CCL1_HUMAN): YES (An arbitrary threshold of >3 fold over background mean fluorescence intensity was chosen to describe confirmed re-tests. Where binding was detected data are indicated as “YES”) | Binding to CCL3_HUMAN, YSD (CCL3_HUMAN): YES (An arbitrary threshold of >3 fold over background mean fluorescence intensity was chosen to describe confirmed re-tests. Where binding was detected data are indicated as “YES”) | Binding to CCL5_HUMAN, YSD (CCL5_HUMAN [3]): YES (An arbitrary threshold of >3 fold over background mean fluorescence intensity was chosen to describe confirmed re-tests. Where binding was detected data are indicated as “YES”)

B3: P991_AMBCA: tick CKBP, Amblyomma cajennense (protein)
chain: ENGEGTTQPDYDNSTDYYNYEDFKCTCPAPHLNNTNGTVMKPIGCYYTCNVTRCTAPDTYPCYNLTEHQAKNLTTSPTTLCAVGNCDHGICVPNGTKELCFKAPNLEE
modifications: Amblyomma cajennense
Kd (CCL11_HUMAN [5]): 3.43 nM | Kd (CCL13_HUMAN): 0.419 nM | Kd (CCL14_HUMAN): 0.43 nM | Kd (CCL15_HUMAN): 159 nM | Kd (CCL18_HUMAN [6]): 0.209 nM | Kd (CCL19_HUMAN [7]): 14.4 nM | Kd (CCL22_HUMAN): 3.97 nM | Kd (CCL23_HUMAN): 5.58 nM | Kd (CCL24_HUMAN): 6.54 nM | Kd (CCL27_HUMAN): 38.9 nM | Kd (CCL3L1_HUMAN): 1.4 nM | Kd (CCL4L1_HUMAN): 0.827 nM | Kd (CCL4_HUMAN): 5.82 nM | Kd (CCL5_HUMAN [8]): 1.47 nM | Kd (CCL7_HUMAN): 0.514 nM | Kd (CCL8_HUMAN): 8.79 nM
